Experimental findings from patent US20150218257A1 are described below.

What all share (assay): cell-based or functional assay
In test [1] the target is HIV-1 ADA Env (gp160), on transfected 293 cells or on ADA pseudovirus (HIV-1 strain ADA).
Test [2] has as its target HIV-1 JR-CSF(Y318A) Env on pseudovirus (HIV-1 isolate JR-CSF) (UniProt P20871).
Test [3] deals with HIV-1 92RW020 Env on pseudovirus (HIV-1 strain 92RW020).
The target of test [4] is HIV-1 JR-CSF(I309A) Env on pseudovirus (HIV-1 isolate JR-CSF) (UniProt P20871).
For test [5], the target named is HIV-1 JR-CSF Env (gp160), on transfected 293/293T cells or on JR-CSF pseudovirus (HIV-1 isolate JR-CSF) (UniProt P20871).
Test [6] concerns the target HIV-1 JR-FL(E168K) Env on pseudovirus (HIV-1 strain JR-FL).

B1: 1503_H05 (PG16) antibody, sister clone of 1443_C16 (antibody, V domains shown)
VH: QEKLVESGGGVVQPGGSLRLSCLASGFTFHKYGMHWVRQAPGKGLEWVALISDDGMRKYHSDSMWGRVTISRDNSKNTLYLQFSSLKVEDTAMFFCAREAGGPIWHDDVKYYDFNDGYYNYHYMDVWGKGTIVTVSS
VL: QSALTQPASVSGSPGQTITISCNGTRSDVGGFDSVSWYQQSPGKAPKVMVFDVSHRPSGISNRFSGSKSGNTASLTISGLHIEDEGDYFCSSLTDRSHRIFGGGTKVTVLG
B1: the IC50 (ug/ml), pseudovirus neutralisation, TZM-bl assay is 0.003 µg/mL in test [1]; > 1 µg/mL in test [2]; 0.02 µg/mL in test [3]; > 1 µg/mL in test [4]; 0.001 µg/mL in test [5]; 0.002 µg/mL in test [6].

B2: 1456_A12 (PG16) antibody, sister clone of 1443_C16 (antibody, V domains shown)
VH: HEQLVEAGGGVVQPGGSLRLSCLASGFTFHKYGMHWVRQAPGKGLEWVALISDDGMRKYHSDSMWGRVTISRDNSKNTLYLQFSSLRVEDTAMFFCAREAGGPIWHDDVKYYDFNDGYYNYHYMDVWGKGTKVTVSS
VL: QSALTQPASVSGSPGQTITISCNGTSRDVGGFDSVSWYQQSPGKAPKVMVFDVSHRPSGMSNRFSGSKSGNTASLTISGLHIEDEGDYFCSSLTDRSHRIFGGGTKLTVLG
As for B2, the IC50 (ug/ml), pseudovirus neutralisation, TZM-bl assay was 0.005 µg/mL in test [1]; > 1 µg/mL in test [2]; 0.05 µg/mL in test [3]; > 1 µg/mL in test [4]; 0.001 µg/mL in test [5]; 0.003 µg/mL in test [6].

B3: 1489_I13 (PG16) antibody, sister clone of 1443_C16 (antibody, V domains shown)
VH: QEQLLESGGGVVQPGGSLRLSCLASGFTFHKYGMHWVRQAPGKGLEWVALISDDGMRKYHSNSMWGRVTISRDNSKNTLYLQFSSLKVEDTAMFFCAREAGGPIWHDDVKYYDFNDGYYNYHYMDVWGKGTTVTVSS
VL: QSALTQPASVSGSPGQTITISCNGTSSDVGGFDSVSWYQQSPGKAPKVMVFDVSHRPSGISNRFSGSKSGNTASLTISGLHIEDEGDYFCSSLTDRSHRIFGGGTKVTVLG
Consider B3, for which the IC50 (ug/ml), pseudovirus neutralisation, TZM-bl assay in test [1] is 0.008 µg/mL; in test [2], > 1 µg/mL; in test [3] it was 0.03 µg/mL; in test [4], > 1 µg/mL; in test [5], 0.002 µg/mL; in test [6], 0.005 µg/mL.

B4: 1469_M23 (PG16) antibody, sister clone of 1443_C16 (antibody, V domains shown)
VH: QEKLVESGGGVVQPGGSLRLSCLASGFTFHKYGMHWVRQAPGKGLEWVALISDDGMRKYHSDSMWGRVTISRDNSKNTLYLQFSSLKVEDTAMFFCAREAGGPIWHDDVKYYDFNDGYYNYHYMDVWGKGTTVTVSS
VL: QSALTQPASVSGSPGQTITISCNGTRSDVGGFDSVSWYQQSPGRAPKVMVFDVSHRPSGISNRFSGSKSGNTASLTISGLHIEDEGDYFCSSLTDRSHRIFGGGTKLTVLG
For B4, the IC50 (ug/ml), pseudovirus neutralisation, TZM-bl assay in test [1] is 0.005 µg/mL; in test [2] it was > 1 µg/mL; in test [3], 0.05 µg/mL; in test [4] it was > 1 µg/mL; in test [5], 0.002 µg/mL; in test [6], 0.005 µg/mL.
